Measurements published in patent publication US20220340678A1 (MURAL ONCOLOGY, published 2022).
Substitutions are numbered along the chain they refer to. Names and notes keep the numbering of the source. Values belong to the binder of their own block, whether it stands above or below them.

Experiments:
[1] = target: Recombinant human uPAR his (R&D Systems, 807-UK-100/CF) (human, UniProt Q03405 23-303, biotinylated (sites not given)); experiment: SPR (Biacore), biotinylated human uPAR his on streptavidin chip
[2] = target: T1, histidine-tagged human uPAR (Sino#10925-H08H) (human, UniProt Q03405 23-303); experiment: BLI (Octet), antibody on anti-human Fc sensor, uPAR from 50 nM;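 further: antibodies captured at 10 µg/mL on anti-human Fc biosensors, with uPAR as analyte in a twofold dilution series from 50 nM downward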
T1 construct: also called uPAR-His

[3] = target: T2, IL-2/IL-15 receptor on HH cells (human); experiment: cell-based or functional assay
T2 chain 1: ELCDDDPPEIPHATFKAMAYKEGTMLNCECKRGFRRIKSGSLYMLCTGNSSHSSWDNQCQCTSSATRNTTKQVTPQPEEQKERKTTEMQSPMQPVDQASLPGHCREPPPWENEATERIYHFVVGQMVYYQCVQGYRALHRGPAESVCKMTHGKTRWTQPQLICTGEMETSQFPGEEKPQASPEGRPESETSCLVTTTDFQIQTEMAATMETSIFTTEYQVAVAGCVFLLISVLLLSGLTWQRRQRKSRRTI
T2 chain 2: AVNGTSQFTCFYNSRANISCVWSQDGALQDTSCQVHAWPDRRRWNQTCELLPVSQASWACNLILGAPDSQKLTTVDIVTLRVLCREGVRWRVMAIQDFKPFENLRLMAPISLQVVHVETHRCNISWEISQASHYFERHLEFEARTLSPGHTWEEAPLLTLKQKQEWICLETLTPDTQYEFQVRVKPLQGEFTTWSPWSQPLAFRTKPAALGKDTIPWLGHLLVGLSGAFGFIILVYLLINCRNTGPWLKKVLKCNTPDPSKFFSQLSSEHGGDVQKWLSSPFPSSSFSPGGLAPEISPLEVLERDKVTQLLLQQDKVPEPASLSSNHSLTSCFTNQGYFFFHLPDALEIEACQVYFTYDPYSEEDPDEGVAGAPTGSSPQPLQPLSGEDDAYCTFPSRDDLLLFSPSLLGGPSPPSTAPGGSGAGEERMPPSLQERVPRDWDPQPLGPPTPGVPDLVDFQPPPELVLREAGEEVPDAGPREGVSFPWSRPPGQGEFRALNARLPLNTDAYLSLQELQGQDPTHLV
T2 chain 3: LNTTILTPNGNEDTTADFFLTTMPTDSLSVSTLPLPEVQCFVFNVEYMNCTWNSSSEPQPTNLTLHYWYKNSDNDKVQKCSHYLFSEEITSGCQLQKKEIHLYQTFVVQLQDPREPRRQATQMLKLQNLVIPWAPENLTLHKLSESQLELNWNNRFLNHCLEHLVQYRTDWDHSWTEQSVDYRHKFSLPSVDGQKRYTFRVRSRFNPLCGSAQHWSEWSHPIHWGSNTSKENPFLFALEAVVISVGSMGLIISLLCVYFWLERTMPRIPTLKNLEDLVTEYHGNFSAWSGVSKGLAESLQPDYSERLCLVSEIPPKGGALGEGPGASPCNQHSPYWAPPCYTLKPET

[4] = target: T3, Recombinant mouse uPAR-Fc (R&D Systems, Cat. No. 531-PA-100) (mouse, UniProt P35456 24-297, limits assumed); experiment: SPR (Biacore), mouse uPAR-Fc captured on anti-human antibody chip
T3 construct: not shown: Fc of the bought fusion (captured with the human antibody capture kit); not described
T3 sequence (looked up): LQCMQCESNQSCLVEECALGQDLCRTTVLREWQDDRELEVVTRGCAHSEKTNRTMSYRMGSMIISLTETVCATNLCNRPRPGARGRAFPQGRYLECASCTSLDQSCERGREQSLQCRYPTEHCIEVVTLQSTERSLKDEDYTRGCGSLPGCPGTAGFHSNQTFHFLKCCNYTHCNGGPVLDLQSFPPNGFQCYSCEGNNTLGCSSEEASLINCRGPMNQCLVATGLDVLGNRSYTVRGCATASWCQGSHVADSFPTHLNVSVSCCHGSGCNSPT

[5] = target: IL-2/IL-15 receptor on primary mouse splenocytes (mouse); experiment: cell-based or functional assay
IL-12 p40 C177F variant = target: T4, IL-12 p40 C177F variant (human, UniProt P29460 23-328); experiment: BLI (Octet), p35 C74 variant against p40 C177F
T4 sequence: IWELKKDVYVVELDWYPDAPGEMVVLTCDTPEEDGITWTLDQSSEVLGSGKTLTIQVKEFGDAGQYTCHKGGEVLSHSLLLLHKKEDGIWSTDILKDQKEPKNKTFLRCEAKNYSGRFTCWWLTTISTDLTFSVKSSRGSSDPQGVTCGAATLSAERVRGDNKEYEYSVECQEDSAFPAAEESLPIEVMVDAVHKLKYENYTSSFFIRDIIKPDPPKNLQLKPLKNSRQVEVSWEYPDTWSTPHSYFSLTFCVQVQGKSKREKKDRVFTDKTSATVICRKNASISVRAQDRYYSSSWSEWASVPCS

IL-12 p40 C177S variant = target: T5, IL-12 p40 C177S variant (human, UniProt P29460 23-328); experiment: BLI (Octet), p35 C74 variant against p40 C177S
T5 sequence: T4 sequence with F177S

Kd [4]: 0.14 nM | koff [4]: 0.0002 s⁻¹ | kon [4]: 1.4e+06 M⁻¹ s⁻¹ | pSTAT5 EC50, mouse NK cells [5]: 35 nM | pSTAT5 EC50, mouse Tregs [5]: 22 nM | pSTAT5 EC50, mouse memory CD8 T cells [5]: 38 nM
B6: Mouse uPA-ATF:Mouse cpIL-2:IL-2Ra:His6 (other)
chain: GSVLGAPDESNCGCQNGGVCVSYKYFSRIRRCSCPRKFQGEHCEIDASKTCYHGNGDSYRGKANTDTKGRPCLAWNAPAVLQKPYNAHRPDAISLGLGKHNYCRNPDNQKRPWCYVQIGLRQFVQECMVHDCGGSGGSKSFQLEDAENFISNIRVTVVKLKGSDNTFECQFDDESATVVDFLRRWIAFCQSIISTSPQGGSSSTQQQQQHLEQLLMDLQELLSRMENYRNLKLPRMLTFKFYLPKQATELKDLQCLEDELGPLRHVLDLTQGSGGGSELCLYDPPEVPNATFKALSYKNGTILNCECKRGFRRLKELVYMRCLGNSWSSNCQCTSNSHDKSRKQVTAQLEHQKEQQTTTDMQKPTQSMHQENLTGHCREPPPWKHEDSKRIYHFVEGQSVHYECIPGYKALQRGPAISICKMKCGKTGWTQPQLTCVDHHHHHH

pSTAT5 EC50, mouse NK cells [5]: 19 nM | pSTAT5 EC50, mouse Tregs [5]: 22 nM | pSTAT5 EC50, mouse memory CD8 T cells [5]: 23 nM
B7: Mouse cpIL-2:IL-2Ra (other)
chain: SSKSFQLEDAENFISNIRVTVVKLKGSDNTFECQFDDESATVVDFLRRWIAFCQSIISTSPQGGSSSTQQQQQHLEQLLMDLQELLSRMENYRNLKLPRMLTFKFYLPKQATELKDLQCLEDELGPLRHVLDLTQGSGGGSELCLYDPPEVPNATFKALSYKNGTILNCECKRGFRRLKELVYMRCLGNSWSSNCQCTSNSHDKSRKQVTAQLEHQKEQQTTTDMQKPTQSMHQENLTGHCREPPPWKHEDSKRIYHFVEGQSVHYECIPGYKALQRGPAISICKMKCGKTGWTQPQLTCVD

Kd (IL-12 p40 C177F variant): 23.8 nM | koff (IL-12 p40 C177F variant): 0.000298 s⁻¹ | kon (IL-12 p40 C177F variant): 12500 M⁻¹ s⁻¹ | Kd (IL-12 p40 C177S variant): 23.2 nM | koff (IL-12 p40 C177S variant): 0.000411 s⁻¹ | kon (IL-12 p40 C177S variant): 17700 M⁻¹ s⁻¹
B10: IL-12 p35 C74Y variant (other)
chain: RNLPVATPDPGMFPCLHHSQNLLRAVSNMLQKARQTLEFYPCTSEEIDHEDITKDKTSTVEACLPLELTKNESYLNSRETSFITNGSCLASRKTSFMMALCLSSIYEDLKMYQVEFKTMNAKLLMDPKRQIFLDQNMLAVIDELMQALNFNSETVPQKSSLEEPDFYKTKIKLCILLHAFRIRAVTIDRVMSYLNAS

Kd (IL-12 p40 C177F variant): 25.4 nM | koff (IL-12 p40 C177F variant): 0.000291 s⁻¹ | kon (IL-12 p40 C177F variant): 11500 M⁻¹ s⁻¹ | Kd (IL-12 p40 C177S variant): 27 nM | koff (IL-12 p40 C177S variant): 0.000432 s⁻¹ | kon (IL-12 p40 C177S variant): 16000 M⁻¹ s⁻¹
B11: IL-12 p35 C74W variant (other)
chain: B10 chain with Y74W

The remaining lines, values behind:

B1: Human uPA-ATF:Human cpIL-2:IL-2Ra:His6 (other)
chain: SNELHQVPSNCDCLNGGTCVSNKYFSNIHWCNCPKKFGGQHCEIDKSKTCYEGNGHFYRGKASTDTMGRPCLPWNSATVLQQTYHAHRSDALQLGLGKHNYCRNPDNRRRPWCYVQVGLKPLVQECMVHDCAGGSGGSKNFHLRPRDLISNINVIVLELKGSETTFMCEYADETATIVEFLNRWITFSQSIISTLTGGSSSTKKTQLQLEHLLLDLQMILNGINNYKNPKLTRMLTFKFYMPKKATELKHLQCLEEELKPLEEVLNLAQGSGGGSELCDDDPPEIPHATFKAMAYKEGTMLNCECKRGFRRIKSGSLYMLCTGNSSHSSWDNQCQCTSSATRNTTKQVTPQPEEQKERKTTEMQSPMQPVDQASLPGHCREPPPWENEATERIYHFVVGQMVYYQCVQGYRALHRGPAESVCKMTHGKTRWTQPQLICTGHHHHHH
notes: also called 98
Kd [1]: 2.2 nM | koff [1]: 0.001 s⁻¹ | kon [1]: 460000 M⁻¹ s⁻¹

B2: M43-H1bm5/L4 (antibody, V domains shown)
VH: QVQLVQSGAEVAKPGASVNLNCKASGYTFTSYGISWVRQRTGQGLEWIGEIYPRSGNTYYNEKFKGKVTLTTDKSTRTAYMELRSLTSEDTAVYYCAGKDYGSTYADYWGQGTTLTVSS
VL: QIVLTQSPATLSASPGERVTMTCSASSSVSSRYLHWYQQKSGASPRLWIYGTSNLASGVPARFSGSGPGTSYTLTISSVEPEDAATYYCQQYHSDPLTFGQGTKLELKT
notes: also called humanized M43
Kd [2]: 15.9 nM | koff [2]: 0.00658 s⁻¹ | kon [2]: 415000 M⁻¹ s⁻¹

B3: M43-H4bm5/L4 (antibody, V domains shown)
VH: B2 VH with V5Q, V68A, T72A, Y95F
VL: B2 VL
notes: also called humanized M43
Kd [2]: 14.7 nM | koff [2]: 0.00666 s⁻¹ | kon [2]: 454000 M⁻¹ s⁻¹

B4: Human IL-15Ra:cpIL-15 (other)
chain: ITCPPPMSVEHADIWVKSYSLYSRERYICNSGFKRKAGTSSLTECVLNKATNVAHWTTPSLKCIRDGGSELEEKNIKEFLQSFVHIVQMFINGGGSNWVNVISDLKKIEDLIQSMHIDATLYTESDVHPSCKVTAMKCFLLELQVISLESGDASIHDTVENLIILANNSLSSNGNVTESGCKEC
pSTAT5 EC50, HH cells [3]: 39 pM

B5: Human cpIL-2:IL-2Ra (other)
chain: SKNFHLRPRDLISNINVIVLELKGSETTFMCEYADETATIVEFLNRWITFSQSIISTLTGGSSSTKKTQLQLEHLLLDLQMILNGINNYKNPKLTRMLTFKFYMPKKATELKHLQCLEEELKPLEEVLNLAQGSGGGSELCDDDPPEIPHATFKAMAYKEGTMLNCECKRGFRRIKSGSLYMLCTGNSSHSSWDNQCQCTSSATRNTTKQVTPQPEEQKERKTTEMQSPMQPVDQASLPGHCREPPPWENEATERIYHFVVGQMVYYQCVQGYRALHRGPAESVCKMTHGKTRWTQPQLICTG
pSTAT5 EC50, HH cells [3]: 1.1 nM

B8: IL-12 p35 C74D variant (other)
chain: B10 chain with Y74D
Kd (IL-12 p40 C177F variant): 60.2 nM | koff (IL-12 p40 C177F variant): 0.000719 s⁻¹ | kon (IL-12 p40 C177F variant): 11900 M⁻¹ s⁻¹ | Kd (IL-12 p40 C177S variant): 57.1 nM | koff (IL-12 p40 C177S variant): 0.001 s⁻¹ | kon (IL-12 p40 C177S variant): 17600 M⁻¹ s⁻¹

B9: IL-12 p35 C74K variant (other)
chain: B10 chain with Y74K
Kd (IL-12 p40 C177F variant): 18.4 nM | koff (IL-12 p40 C177F variant): 0.000295 s⁻¹ | kon (IL-12 p40 C177F variant): 16000 M⁻¹ s⁻¹ | Kd (IL-12 p40 C177S variant): 19.6 nM | koff (IL-12 p40 C177S variant): 0.000508 s⁻¹ | kon (IL-12 p40 C177S variant): 25900 M⁻¹ s⁻¹
